Reference: the domain aggregation screens of Martell et al. (2025)

experiment: soluble fraction after stress (log2 fold change); higher = more stays soluble; pooled small domains, quantitative proteomics; settings: stress: 50 degC
Summary of the method: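 Pooled custom libraries of small protein domains were each held under stress at 50°C. The read-out, high-throughput quantitative proteomics, tracked how much of each protein stayed soluble. This is reported as a base-two log fold change used to indicate aggregation propensity. Higher values mean more protein remains in solution.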

| Sequence | soluble fraction (log2) |
| --- | --- |
| HMEYKNYYDSPVGRLELLSDGVSLTAVLFENQQGDGTREENTSLAIFKEATQWLDAYFKGDNPEITIPL | 0.0756 |
| HMDENDPYEILEIDRLASDDQVKAKYRALIRENHPDVLMAKGVPQEFIDLANRKMAVINAAYDRIEKEREF | -0.0184 |
| HMAFAVWVKLVAIGPNYAQLEIEQGTQRNVRTLRPGDDAPEGVRLLSLTPTHAEVQANGIARKLALGQGMA | -0.381 |
| HMVAPPILNITTHIFAEEADLRMVMINGVTRREGDSLGENHRLLEITERGLILIFHNKQYTLDV | -3.68 |
| HMEEFDLNAYITKINSAATLNALKQAYAEANSAALSVKDKDAQRKIIVEKDKRKAELIQETAG | 0.31 |
| HMRLREETRKVDKTGLIQVDGRHYRVPDEYSQKDVQILMDDNSIMVYRKGDFVIELDKETSVYMPH | 0.214 |
| HMEAKSSTKALLDVVLGRNGVSTANVAKSLNISVQNASTRLKKLSSEGVIMRSEVSSPTGGIEFIYS | -0.0504 |
| HMKYYIYQGLGDSGELTKIAEVTDVKTYTATGLEANTKYRFAVSAYNGLRESSKSNIITVTT | 0.0324 |
| HMAVNSALVQRNWLIGYRIAEEELQGDNRAEYGASIIKKLAKELTAEYGKGYTKTNLYHFYSFYKT | -0.136 |
| HMEYSTLEIYSQTKKDLIEKSPHLNKVVYDKDDGYIYLLSFEKEDDLTSFKSNIENDSDIKRIEANV | 0.0917 |
| HMNVKVSVDDIARPGLMASGRVTFADGNRGMWYVDEMGRLGIDPEVEGYQPSEADIQAFQRELQSVMES | 0.102 |
| HMRDITAQSNASELYFEERDLEAFIEKLERLYPEIRYVNRLMIHSWGQQVVRFFDPDGNLIEVGTP | -0.145 |
| HMNKVAQFYRELVSTLSERLRNGERDIDALVEQARVRISQSGELTQSEIENVIRAVRRDLEEFALSYEE | 0.0926 |
| HMPVISGQDLRVLIRDTGRERDQGISFLDDGTMVVVEDARRLIGQEVTATVTRVHQTQTGRIVFAHLSN | 0.0684 |
| HMNIDNTWQPSEDVVEILTRSGINEDFINELIPEFIVYWTERPGTLVSYNSKFIEHVRLKWAQHSAEI | 0.0597 |
| HMKFPNVGENLRLLRQEMGISLDKASKMTGVSKAMLGQIERGESSPTVSTLWKISSGFKINFTTLLSE | -2.38 |
| HMQEDKSKYLFQRGTAITVLRPAGIVRIGKERVDAVSNGSYIDRGVAVRVIEVEGTRVVVEPVPE | 0.13 |
| HMDINMELGKNIRRLRKLNNLTQQSLANQMNRSKTLIALWEKGERDPSSIDLKRLSEIFNVRADDIIG | -0.689 |
| HMGRYDWIEQIDDPVLAERLKHLTEDDLELLTRYVFEDATQKELASQYGIGQQSVSKRLKKLKSFLTK | 0.00228 |
| HMEKINLLVENNDNYRLDKIIALNMEELSRTQIQEMIGQGLVLVNGKVEKASYKTKLNDQIEITIED | 0.0401 |
| HMNSVAASLREISIKVSGTEDADKVSRLQELSQMPKLDASGIAEANTLLEQLRAKYGDLGLSVDTARGRIV | 0.284 |
| HMDLQNIQNQLNTEFAKSDTRIIFWFDDKGEYEDEVSELQLGDVKLHILDGLNWFYSKYLLNEA | -0.274 |
| HMKNNLKGSPIIIAGGYGVGSKENFNLLFDLAKVLNAEVGASRAAVDAGFVEHDRQIGQTGVTVRP | 0.0735 |
| HMEQAAQPQTGFDPRRLKAGDAVHLLALDQRGVLLEDPKPGAESAPVSVGVAGVRVVVPLREMEALPAG | 0.157 |
| HMPLSVRQRMSDILSNLKTSDFTNFADLFDPKEGRTGITVTFIAILELLREFLIEVVQSDHYQPLHVRAAS | -0.291 |
| HMGSGQIRYITENTVRVVYGTSKENEFVFQDGKPYPKDTPYHIHYTRNLEEYFMSGVEHDKNSKIILKVD | -0.803 |

| Sequence | soluble fraction (log2) |
| --- | --- |
| HMRKATEVPFTAFKDSIENSHGKLSKAGLARHLADEYGMSQRNMERRINNLIDNKTIKYGNEGGLVWIG | -0.0291 |
| HMQNNITISKEIELRTGPDDTYPTLKKVTAGDNVEMLSKSDTWYEIKTNDSFVGWVPGWSIL | 0.0818 |
| HMNINLDINTYTVKELEKLLKLEVPYSDNNVFEKKNLMVKMIQTSTIAETKKEELYIFLDNIYNRLTNNLE | -1.35 |
| HMTVKKEIAKVKPTPLGWLRVRETPSLNGAEITKVNTGESYDVLDKETGWIKIKVSETVEGWVSDAYIELS | 0.236 |
| HMDFSYTVGDIDEPIDSRGNSVIMLRKLAWGSNAEKLEIRRWIIDIDSERANKGVTFLTEEGPHNLVRV | 0.128 |
| HMGPVRRDLEINGRMVPLTIREHARATRITLRIEPGGQALRLTIPPGLPTREVDSFLTRHHGWLMTKLAHI | -1.79 |
| HMQIAEAESLGQRLLQQSINNIVGRDEAITEERLNRVLSQYSLTGRDELMAQIGLGNRNSSLVAKAMYDI | 0.0632 |
| HMIPDMSLELAMSEQTSKGDLYGDLPNDKLALMFNAISKKVPHTDDHKRKMVAIQTILESRAS | -0.251 |
| HMAKVDIPHEMVDQRIDEIVEEIKMNLESQNMSLDDYLKRMNQTEAQLRANYEATAAEQVRQGLV | 0.314 |
| HMEFQEQLYRLRKQAGLSQEELSHIIGVSRQAVQKWEAGSARPDLDNLIALASHFKLSLDQLVGLT | -0.555 |
| HMQPSQTLSATVEFPDRLDRFLALAFPEVSRARFQRLIAEGHVSVEGVPATEIRHKLKAGQRVEAVIPPA | 0.0663 |
| HMAQLPADMSKVKSADISEAQLQEFIQKATSSGYNMNQIEMEFAKRGMSENEVSLLRPRLRRLMAS | -0.031 |
| HMGKEDLTAAIKKMTLNDKLDIHKIVANFQTNDSEEVITAVKWLMENNYLLKIKNNYTWNTKEK | -0.263 |
| HMDPTIRRGELIDAASRLFLSKGYAATSVRDILDEVGNRTASPSVFYYYFKSKEEIYQAVLRRHSE | -0.847 |
| HMNTKLSYSDLIEKIEAGQVEKVELDAGGSSAIVKLKNDNIEKRVNVPSIDNLMENLQDNMKTGNISVTE | 0.42 |
| HMKPSKTDEAEYWLMERLEEGPQPAGDLIRIGEEFGYTPKILRDAGERFNMERYKDGLDHWMWKLPN | -0.0945 |
| HMYEGNEFSSTGMFREDILAITAVHPMREDAVTELLARSNESEETLEMMIDEELLRRVAYGNHNYYMRRFR | -0.428 |
| HMYNNDEIEKIQTMYNAIYQLNDIEKALIMLFLEDKSYKEIAEIMGISEGNARIKMMRTKDKLKNLISKN | -0.369 |
| HMEADERRNEILDAAETLITEKGYSKTTIIDILNQVGIAKGTFYYYFKSKEEVMDAIIERFI | -2.25 |
| HMDSSNLSLIAGVGPTIEKKLRAAGITSWEQIAAWTEADVAKYDEELNLRGRITRDEWIEQAKELLAGKPP | -0.0993 |
| HMHGERVVTAGQTVRVVFTSNGLQVSSEGKALAAGAVGDDIQVRAASGKVIRGTVTGPGVVQV | 0.231 |
| HMADRDKYIIMGQQLLRAAFEHFGKKATDKALENAANKLRISDVPELYARLGSAELQPRDVINVIFPD | -0.0534 |
| HMGEKPTEITLSNAISVQELAEKLYVSETDIIRTLFLDGIIVNINQVLDLETAVKVGDQLGVTITIVE | -1.2 |
| HMDLPDYYFRVRENGAVVFRVGTENRQRRIEMVEIATVNVKNGNIKPHGEVDLTKADRLAIGEWLAARQAQ | -1.36 |
| HMTDFDPDGREKLIKVQKALHFNNHQLADALRVGQATFSSYIYGRVAAGVPVRVVKAAEDLLKNSKATV | -0.303 |
| HMKVTGITDDILQRLKQQKGYLMLSDKSSPDEIYAAFGVSKKVFKQAIGTLFKQRQIIIEEQGIRLAN | -0.39 |

| Sequence | soluble fraction (log2) |
| --- | --- |
| HMAQIVNLPRKNVNGASYYYYEVQPKETIYSISRKLGVSGAEIQRHNPSVADGLKIGQVLYFPAEG | 0.0843 |
| HMVLPELRLQGLPTAVLRLINRATALADDYRRLMEIAEDGRIDEWEAPEFERISENIQRVIAAGFEVL | 0.0167 |
| HMSSKTKVEDLGLSTRTLNALIGGSIKTAGGLTRKSESDLLSLDGLGEKGITEIKEALENIGLSLK | 0.215 |
| HMNLYENLATHVKNAIRQGVYQPGDRLPSVRRLSEQHRVSQNTAVSAYRLLESHGWLEARPQSGFFARHP | -1.11 |
| HMETQVKVPNVVGMTQSKAIAKLKESKLDYEVQEQKHDGDKGKVVDQSEAEGTYVDRGTKVIIYVSTGE | -0.088 |
| HMTMVVIMNADATQADIEGVISAIEEKGLEAKVMEGAHQKIVGVIGDKTKLAATPLDAMHGVETTVAIS | -0.0878 |
| HMLLGDYIQKLRNQRGLSQQEFADKLGIGRSTLANYEQNKRSPDYETLIEISKFFNVSIDELLGV | -0.484 |
| HMRMSRSARLFDLLHILRSHRRAVSGQALAQQLGISIRTLYRDIASLQAQGAKIEGEPGVGYMLKP | -0.947 |
| HMAGTGKVNTGVANVRSGPGTNYEISGKIYADTEVSILETSNGWYKIKFGNLTGWMSGTVLDIK | -0.138 |
| HMEPGEVQVDGLRFIAQPQERNDFEVALEQFRAGNFAAARKSFAAFINTYKQSGYLPSARFW | -0.0516 |
| HMIQHFARKRRQLELAVQRLSGRMAETNGQVTADMQRLIQQVKALVAELSHVFSRAYLRRVLGGVALVIGS | -0.104 |
| HMFEPLTDREREVLQALADGLSDKEIAERLYISPATVRTHITAILGKLDANSRLQAVVVAARHNLVTL | -0.0803 |
| HMGLGQRIKARREALGLSQARLGEAVGVSLQAVSNWERDEYLPDTARLPLIARALGLTPGQLME | 0.0172 |
| HMAEMLENQLKHAKSKQEANEYIAAAIGGVSDDDPDKEYLVAAYNEISKEFHHSSAYHRLPDT | -0.0511 |
| HMSVDVEGNQRIPTEQVLSELRDVGVSFGKRVSGLNADTIRNQMIINNDEIAWLGVNVRGSRVYVEITERI | -0.018 |
| HMKVFTEDEMLEKIKEYLSTNSYINRRVMETQFGLRQNIALKWLKHFTEIGVLRKEGERNSPIYFLNN | ≥ 0.62 |
| HMEALNIEQKKVEIINVLLEKGKGKGRLSYKEISDQIDTVELDKDQMDELYETLMTNGIEIV | 0.114 |
| HMEDETAKVLRLLAENNGYLPYNDKSDPTDIYAFFGMSKKAFKMTTGNLYKQKKIQFTQTGIQLIE | -0.347 |
| HMSATIMVLRASEDIPVGTEIKDNHLTTVEVGSYGLPEGAINDKDTVLGKVAQTNIIKGDYFFPQKLGG | 0.152 |
| HMEDDRLIQNLLLTAKNLVMDVGRMDESALAENEDTVRTAMLFALGYLYENRSNPDYHKLTLNLRSILFA | -0.493 |
| HMHNISQTGRRIAGMTQERWAEALDISVESVRLYESGRGMPSDDVATRMVEVSGAPVLGYWH | -0.407 |
| HMEDTVNVPIQINGKLRHVIQVQIGTSEEEIQKIALSEEQVKKFTDGHEILKVMVPKGKLVSIVI | -0.129 |
| HMNGAVAEQARKQLMAALKASEFIAEEKLDEWLDALALPEDKRTAIVDAVDELDYEEAISELEN | 0.0153 |
| HMTKDYVVIYEGLAQTEAVEILGKLQEMGVSAKVDHNDSILVLKDEEDQIRMALATEGYPKS | -0.0917 |
